The record followed here is patent publication US20150166666A1 (Chugai, published 2015).

Experiment [1] concerns the target T1, Soluble recombinant human IL-6 receptor (SR344) (human, UniProt P08887 20-344, biotinylated (sites not given) only in the membrane-type dissociation assay).
T1 construct: range 1-344; also called soluble IL-6 receptor; soluble human IL-6 receptor
T1 sequence (looked up): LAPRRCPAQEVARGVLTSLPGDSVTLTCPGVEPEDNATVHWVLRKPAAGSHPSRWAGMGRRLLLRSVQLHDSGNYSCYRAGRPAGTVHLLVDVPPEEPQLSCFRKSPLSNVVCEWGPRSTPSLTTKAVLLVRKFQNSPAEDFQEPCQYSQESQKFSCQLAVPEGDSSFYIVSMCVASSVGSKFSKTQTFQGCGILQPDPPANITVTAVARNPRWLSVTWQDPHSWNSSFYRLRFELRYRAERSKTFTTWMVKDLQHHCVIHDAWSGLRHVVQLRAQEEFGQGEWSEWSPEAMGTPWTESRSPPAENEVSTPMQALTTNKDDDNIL
In words: SPR, Biacore T100, biotinylated SR344 on streptavidin chip as membrane-type IL-6 receptor, ratio of dissociation rates. Here is the method:
The rates of dissociation of TOCILIZUMAB, Fv3-M73, and Fv4-M73 from membrane-type IL-6 receptor at pH 7.4 and 5.8 were determined.
(§1) The antigen-antibody reaction with membrane-type IL-6 receptor at pH 5.8 and pH 7.4 was observed using Biacore T100 (GE Healthcare). The binding to membrane-type IL-6 receptor was assessed by evaluating the binding to soluble human IL-6 receptor immobilized onto the sensor chip. SR344 was biotinylated by a method known to those skilled in the art. Based on the affinity between biotin and streptavidin, biotinylated soluble human IL-6 receptor was immobilized onto the sensor chip via streptavidin. All measurements were conducted at 37° C. The mobile phase buffer was 10 mM MES (pH 5.8), 150 mM NaCl, and 0.05% Tween 20. […] The dissociation rate constant (kd (1/s)) at pH 5.8 was calculated using Biacore T100 Evaluation Software (GE Healthcare) by fitting only the dissociation phase at pH 5.8. The sample concentration was 0.25 μg/ml. Binding was carried out in 10 mM MES (pH 7.4), 150 mM NaCl, and 0.05% Tween 20, and dissociation was carried out in 10 mM MES (pH 5.8), 150 mM NaCl, and 0.05% Tween 20. Likewise, the dissociation rate constant (kd (1/s)) at pH 7.4 was calculated using Biacore T100 Evaluation Software (GE Healthcare) by fitting only the dissociation phase at pH 7.4. The sample concentration was 0.5 μg/ml. Binding was carried out in 10 mM MES (pH 7.4), 150 mM NaCl, and 0.05% Tween 20, and dissociation was carried out in 10 mM MES (pH 7.4), 150 mM NaCl, and 0.05% Tween 20.
(In SPR one partner is held on a chip, and binding of the other changes the refractive index at the surface.)

Experiment [2] has as its target T1, Soluble recombinant human IL-6 receptor …. In words: cell-based or functional assay.
Experiment [3] has the same target. In words: SPR, Biacore T100, biotinylated SR344 on streptavidin chip as membrane-type IL-6 receptor, ratio of dissociation rates. Here is the method: as §1
This is another data set of the same source.

Experiment [4] has as its target T2, Soluble human FcRn (complex of FcRn and beta2-microglobulin) (human, UniProt P55899 24-290; P16213 21-119).
T2 construct: Both constructs are stated with their signal regions (Met1-Leu290; Met1-Met119)
In words: Biacore, binding to human FcRn.

The target in experiment [5] is T1, Soluble recombinant human IL-6 receptor …. Description: SPR, Biacore T100, antibody captured on chip, soluble IL-6 receptor as analyte; ratio against TOCILIZUMAB
Here is the method:
(§2) Antigen-antibody reaction kinetics was analyzed using Biacore T100 (GE Healthcare). The soluble human IL-6 receptor-antibody interaction was measured by immobilizing appropriate amounts of protein A or protein A/G or anti-IgG (γ-chain specific) F(ab′)2 onto a sensor chip by amine coupling method, binding antibodies of interest onto the chip at pH7.4, and then running soluble IL-6 receptor adjusted to various concentrations at pH7.4 over the chip as an analyte. All measurements were carried out at 37° C. The kinetic parameters, association rate constant kₐ (1/Ms) and dissociation rate constant kd (1/s) were calculated from the sensorgrams obtained by measurement. Then, KD (M) was determined based on the rate constants. The respective parameters were determined using Biacore T100 Evaluation Software (GE Healthcare).

Experiment [6] shares this target. Description: SPR, Biacore T100, soluble IL-6 receptor as analyte. Here is the method:
as §2

Experiment [7] has the same target. In words: cell-based or functional assay. This is another data set of the same source.
The target of experiment [8] is T2, Soluble human FcRn (complex of FcRn and …). In words: Biacore, binding to human FcRn. This is another data set of the same source.

One may read the Kd as the concentration at which binding is half-saturated.

Like-named read-outs stand apart in the source and are kept apart here.

T2 sequence (P55899 24-290 limits assumed, chain 1 of 2): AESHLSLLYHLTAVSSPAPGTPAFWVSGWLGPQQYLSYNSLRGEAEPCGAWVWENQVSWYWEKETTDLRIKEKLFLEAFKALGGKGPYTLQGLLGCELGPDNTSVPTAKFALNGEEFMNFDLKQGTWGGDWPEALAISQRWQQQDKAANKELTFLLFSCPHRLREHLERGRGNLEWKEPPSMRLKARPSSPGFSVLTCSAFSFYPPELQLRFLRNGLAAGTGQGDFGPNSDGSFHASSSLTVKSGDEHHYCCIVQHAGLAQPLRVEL
T2 sequence (P16213 21-119 limits assumed, chain 2 of 2): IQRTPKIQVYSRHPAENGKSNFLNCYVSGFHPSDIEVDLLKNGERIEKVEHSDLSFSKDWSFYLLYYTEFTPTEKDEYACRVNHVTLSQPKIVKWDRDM

B1: TOCILIZUMAB (H chain WT-IgG1; L chain WT-kappa) (antibody)
heavy: not shown
light: not shown
notes: IgG1/kappa; also called TOCILIZUMAB-IgG1; humanized anti-IL-6 receptor IgG1 antibody
On to B1, for which the “kd (pH 5.8)/kd (pH 7.4), pH …” value in experiment [1] and in experiment [3] was 1 throughout. The “IC50 (read off the curve)” value in experiment [2] is approximately 0.5 µg/mL. This molecule showed an equilibrium dissociation constant (Kd) in experiment [4] of 1.62 µM.

B2: RDC-23 (H chain RDC23H-IgG1; L chain RDC-23L-kappa) (antibody, V domains shown)
VH: QVQLQESGPGLVRPSQTLSLTCTVSGYSITSDHAWSWVRQPPGRGLEWIGYISYSGITTYNPSLKSRVTMLRDTSKNQFSLRLSSVTAADTAVYYCARVLARITAMDYWGQGSLVTVSS
VL: DIQMTQSPSSLSASVGDRVTITCRASQDISSYLNWYQQKPGKAPKLLIYYTSRLHSGVPSRFSGSGSGTDFTFTISSLQPEDIATYYCGQGNRLPYTFGQGTKVEIKR
For the molecule B2, in experiment [5], the “fold affinity relative to TOCILIZUMAB” value was approximately 60 times. Moreover, in experiment [6], the “fold higher affinity than TOCILIZUMAB” value is approximately 60 times. Further, the “IC50 (read off the curve)” value in experiment [7] is approximately 0.02 µg/mL.

B3: TOCILIZUMAB-M58 (H chain WT-M58; L chain WT-kappa) (antibody, IgG2)
heavy: QVQLQESGPGLVRPSQTLSLTCTVSGYSITSDHAWSWVRQPPGRGLEWIGYISYSGITTYNPSLKSRVTMLRDTSKNQFSLRLSSVTAADTAVYYCARSLARTTAMDYWGQGSLVTVSSASTKGPSVFPLAPSSKSTSGGTAALGCLVKDYFPEPVTVSWNSGALTSGVHTFPAVLQSSGLYSLSSVVTVPSSNFGTQTYTCNVDHKPSNTKVDKTVERKSCVECPPCPAPPVAGPSVFLFPPKPKDTLMISRTPEVTCVVVDVSQEDPEVQFNWYVDGVEVHNAKTKPREEQFNSTFRVVSVLTVVHQDWLNGKEYKCKVSNKGLPAPIEKTISKTKGQPREPQVYTLPPSQEEMTKNQVSLTCLVKGFYPSDIAVEWESNGQPENNYKTTPPMLDSDGSFFLYSKLTVDKSRWQEGNVFSCSVMHEALHNHYTQKSLSLSP
light: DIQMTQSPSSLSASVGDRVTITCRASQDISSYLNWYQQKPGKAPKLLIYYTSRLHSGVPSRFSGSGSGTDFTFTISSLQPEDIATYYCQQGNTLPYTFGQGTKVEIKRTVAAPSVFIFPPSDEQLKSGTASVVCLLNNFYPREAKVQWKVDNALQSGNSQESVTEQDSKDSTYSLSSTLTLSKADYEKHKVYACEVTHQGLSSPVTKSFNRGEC
notes: M58 constant region: altered IgG2 (SKSC with further changes, Gly446 and Lys447 deleted)
As for B3, the “fold superior binding than TOCILIZUMAB-IgG1” value in experiment [8] was approximately 1.4 times.

B4: TOCILIZUMAB-M73 (H chain WT-M73; L chain WT-kappa) (antibody)
heavy: QVQLQESGPGLVRPSQTLSLTCTVSGYSITSDHAWSWVRQPPGRGLEWIGYISYSGITTYNPSLKSRVTMLRDTSKNQFSLRLSSVTAADTAVYYCARSLARTTAMDYWGQGSLVTVSSASTKGPSVFPLAPSSKSTSGGTAALGCLVKDYFPEPVTVSWNSGALTSGVHTFPAVLQSSGLYSLSSVVTVPSSNFGTQTYTCNVDHKPSNTKVDKTVERKSCVECPPCPAPPVAGPSVFLFPPKPKDTLMISRTPEVTCVVVDVSQEDPEVQFNWYVDGVEVHNAKTKPREEQFNSTFRVVSVLTVVHQDWLNGKEYKCKVSNKGLPAPIEKTISKTKGQPREPQVYTLPPSQEEMTKNQVSLTCLVKGFYPSDIAVEWESNGQPENNYKTTPPMLDSDGSFFLYSKLTVDKSRWQEGNVFSCSVMHEALHAHYTQKSLSLSP
light: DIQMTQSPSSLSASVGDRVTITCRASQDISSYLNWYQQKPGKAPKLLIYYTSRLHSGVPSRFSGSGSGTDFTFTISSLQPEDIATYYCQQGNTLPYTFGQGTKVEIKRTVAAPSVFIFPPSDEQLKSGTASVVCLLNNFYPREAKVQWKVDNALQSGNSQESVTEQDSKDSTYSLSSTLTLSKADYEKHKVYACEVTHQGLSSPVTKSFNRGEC
notes: M73 constant region: M58 with asparagine 434 (EU) changed to alanine
For the molecule B4, the “fold superior binding than TOCILIZUMAB-IgG1” value in experiment [8] is approximately 3.8 times.

B5: H53/L28 (H chain H53-IgG1; L chain L28-kappa) (antibody, V domains shown)
VH: QVQLQESGPGLVKPSETLSLTCAVSGYSISDDHAWSWVRQPPGEGLEWIGYISYSGITNYNPSLKGRVTISRDTSKNQFSLKLSSVTAADTAAYYCARSLARTTAMDYWGEGTLVTVSS
VL: DIQMTQSPSSLSASVGDSVTITCQASQDISSYLNWYQQKPGKAPELLIYYGSELHSGVPSRFSGSGSGTDFTFTISSLEAEDAATYYCQQGNSLPYTFGQGTKVEIER
notes: IgG1/kappa; also called TOCILIZUMAB with reduced isoelectric point
As for B5, the “IC50 (read off the curve)” value in experiment [2] was approximately 0.1 µg/mL. In experiment [6], the “fold higher affinity than TOCILIZUMAB” value is approximately 6 times.

B6: Fv3-M73 (H chain VH4-M73; L chain VL1-kappa) (antibody, V domains shown)
VH: QVQLQESGPGLVKPSETLSLTCAVSGHSISHDHAWSWVRQPPGEGLEWIGFISYSGITNYNPTLQGRVTISRDNSKNTLYLQMNSLRAEDTAVYYCARSLARTTAMDYWGEGTLVTVSS
VL: DIQMTQSPSSLSASVGDSVTITCQASRDISSHLNWYQQKPGKAPELLIYYGSHLLSGVPSRFSGSGSGTDFTFTISSLEAEDAATYYCGQGNRLPYTFGQGTKVEIER
notes: Fully humanized
B6: in experiment [1], the “kd (pH 5.8)/kd (pH 7.4), pH …” value worked out at 10.9.

B7: H3pI/L73 (H chain H3pI-IgG1; L chain L73-kappa) (antibody, V domains shown)
VH: QVQLQESGPGLVKPSETLSLTCAVSGHSISHDHAHSWVRQPPGEGLEWIGYISYSGITNYNPSLKGRVTISRDTSKNQFSLKLSSVTAADTAAYYCARSLARTTAMDYWGEGTLVTVSS
VL: DIQMTQSPSSLSASVGDSVTITCQASQHISSHLNWYQQKPGKAPELLIYYGSHLHSGVPSRFSGSGSGTDFTFTISSLEAEDAATYYCGQGNRLPYTFGQGTKVEIER
notes: IgG1/kappa
As for B7, the “kd (pH 5.8)/kd (pH 7.4), pH …” value in experiment [3] amounted to 2.59.

B8: Fv4-M73 (H chain VH3-M73; L chain VL3-kappa) (antibody, V domains shown)
VH: QVQLQESGPGLVKPSETLSLTCAVSGHSISHDHAWSWVRQPPGEGLEWIGFISYSGITNYNPSLQGRVTISRDNSKNTLYLQMNSLRAEDTAVYYCARSLARTTAMDYWGEGTLVTVSS
VL: DIQMTQSPSSLSASVGDSVTITCQASTDISSHLNWYQQKPGKAPELLIYYGSHLLSGVPSRFSGSGSGTDFTFTISSLEAEDAATYYCGQGNRLPYTFGQGTKVEIER
notes: Fully humanized
On to B8, for which the “kd (pH 5.8)/kd (pH 7.4), pH …” value in experiment [1] amounted to 10.1.
